From patent publication US20160109449A1 (JULIUS MAXIMILIANS UNIVERSITAET WUERZBURG, published 2016) come the findings set out here.

For experiment [1], the target named is IsaA oligopeptide SEQ ID NO: 32 (Staphylococcus aureus). Briefly: peptide array on glass slide, fluorescent secondary antibody.
Experiment [2] concerns the target T1, IsaA oligopeptide SEQ ID NO: 53 (Staphylococcus aureus).
T1 construct: Synthetic 15-mer of IsaA, spotted on a glass slide
T1 peptide: AAIIARESNGQVNAY
The experiment is described as above.
Protocol: (§1) Each oligopeptide was immobilized on a small spot on a glass side. Binding of the monoclonal antibodies secreted by the hybridoma cell line DSM ACC2987 and of control antibodies to these spots was examined upon incubation with these antibodies by binding of fluorescence labeled secondary antibodies and detecting fluorescence intensities.

Experiment [3] concerns the target T2, IsaA oligopeptide SEQ ID NO: 15 (Staphylococcus aureus).
T2 construct: Synthetic 15-mer of IsaA, spotted on a glass slide
T2 peptide: HQAHAAEVNVDQAHL
Described as above.
Protocol: as §1

The target of experiment [4] is T3, IsaA oligopeptide SEQ ID NO: 44 (Staphylococcus aureus).
T3 construct: Synthetic 15-mer of IsaA, spotted on a glass slide
T3 peptide: TTSSSVRLSNGNTAG
Described as above.
Protocol: as §1

Experiment [5] deals with T4, IsaA oligopeptide SEQ ID NO: 48 (Staphylococcus aureus).
T4 construct: Synthetic 15-mer of IsaA, spotted on a glass slide
T4 peptide: TGSSAAQIMAQRTGV
Described as above.
Protocol: as §1

For experiment [6], the target named is T5, IsaA oligopeptide SEQ ID NO: 17 (Staphylococcus aureus).
T5 construct: Synthetic 15-mer of IsaA, spotted on a glass slide
T5 peptide: NVDQAHLVDLAHNHQ
Described as above.
Protocol: as §1

The target of experiment [7] is T6, IsaA oligopeptide SEQ ID NO: 46 (Staphylococcus aureus).
T6 construct: Synthetic 15-mer of IsaA, spotted on a glass slide
T6 peptide: SNGNTAGATGSSAAQ
The experiment is described as above.
Protocol: as §1

Experiment [8] has as its target T7, IsaA oligopeptide SEQ ID NO: 12 (Staphylococcus aureus).
T7 construct: Synthetic 15-mer of IsaA, spotted on a glass slide
T7 peptide: ALGVTGYAAGTGHQA
The experiment is described as above.
Protocol: as §1

The target of experiment [9] is T8, IsaA oligopeptide SEQ ID NO: 35 (Staphylococcus aureus).
T8 construct: Synthetic 15-mer of IsaA, spotted on a glass slide
T8 peptide: SYNQGSDVQSVSYNA
The description is as above.
Protocol: as §1

In experiment [10] the target is T9, IsaA oligopeptide SEQ ID NO: 34 (Staphylococcus aureus).
T9 construct: Synthetic 15-mer of IsaA, spotted on a glass slide
T9 peptide: DYTTSYNQGSDVQSV
The description is as above.
Protocol: as §1

In experiment [11] the target is T10, IsaA oligopeptide SEQ ID NO: 61 (Staphylococcus aureus).
T10 construct: Synthetic 15-mer of IsaA, spotted on a glass slide
T10 peptide: TNTVDQQINAAVKAY
The description is as above.
Protocol: as §1

The target of experiment [12] is T11, IsaA oligopeptide SEQ ID NO: 22 (Staphylococcus aureus).
T11 construct: Synthetic 15-mer of IsaA, spotted on a glass slide
T11 peptide: APIKDGAYDIHFVKD
The description is as above.
Protocol: as §1

The target of experiment [13] is T12, IsaA oligopeptide SEQ ID NO: 9 (Staphylococcus aureus).
T12 construct: Synthetic 15-mer of IsaA, spotted on a glass slide
T12 peptide: MKKTIMASSLAVALG
Described as above.
Protocol: as §1

Experiment [14] addresses T13, IsaA oligopeptide SEQ ID NO: 24 (Staphylococcus aureus).
T13 construct: Synthetic 15-mer of IsaA, spotted on a glass slide
T13 peptide: DIHFVKDGFQYNFTS
Described as above.
Protocol: as §1

Experiment [15] concerns the target T14, IsaA oligopeptide SEQ ID NO: 39 (Staphylococcus aureus).
T14 construct: Synthetic 15-mer of IsaA, spotted on a glass slide
T14 peptide: SSNSNVEAVSAPTYH
Described as above.
Protocol: as §1

The target of experiment [16] is T15, IsaA oligopeptide SEQ ID NO: 19 (Staphylococcus aureus).
T15 construct: Synthetic 15-mer of IsaA, spotted on a glass slide
T15 peptide: DLAHNHQDQLNAAPI
Described as above.
Protocol: as §1

In experiment [17] the target is T16, IsaA oligopeptide SEQ ID NO: 42 (Staphylococcus aureus).
T16 construct: Synthetic 15-mer of IsaA, spotted on a glass slide
T16 peptide: TYHNYSTSTTSSSVR
The description is as above.
Protocol: as §1

Experiment [18] has as its target T17, IsaA oligopeptide SEQ ID NO: 64 (Staphylococcus aureus).
T17 construct: Synthetic 15-mer of IsaA, spotted on a glass slide
T17 peptide: AVKAYKAQGLGAWGF
The description is as above.
Protocol: as §1

The target of experiment [19] is T18, IsaA oligopeptide SEQ ID NO: 18 (Staphylococcus aureus).
T18 construct: Synthetic 15-mer of IsaA, spotted on a glass slide
T18 peptide: AHLVDLAHNHQDQLN
Described as above.
Protocol: as §1

Experiment [20] addresses T19, IsaA oligopeptide SEQ ID NO: 32 (Staphylococcus aureus).
T19 construct: Synthetic 15-mer of IsaA, spotted on a glass slide
T19 peptide: GFSNVAGADYTTSYN
The experiment is described as above.
Protocol: as §1

Experiment [21] deals with T20, IsaA oligopeptide SEQ ID NO: 43 (Staphylococcus aureus).
T20 construct: Synthetic 15-mer of IsaA, spotted on a glass slide
T20 peptide: YSTSTTSSSVRLSNG
Described as above.
Protocol: as §1

In experiment [22] the target is T21, IsaA oligopeptide SEQ ID NO: 49 (Staphylococcus aureus).
T21 construct: Synthetic 15-mer of IsaA, spotted on a glass slide
T21 peptide: AAQIMAQRTGVSAST
Described as above.
Protocol: as §1

The target of experiment [23] is T22, IsaA oligopeptide SEQ ID NO: 21 (Staphylococcus aureus).
T22 construct: Synthetic 15-mer of IsaA, spotted on a glass slide
T22 peptide: QLNAAPIKDGAYDIH
Described as above.
Protocol: as §1

For experiment [24], the target named is T23, IsaA oligopeptide SEQ ID NO: 20 (Staphylococcus aureus).
T23 construct: Synthetic 15-mer of IsaA, spotted on a glass slide
T23 peptide: NHQDQLNAAPIKDGA
The description is as above.
Protocol: as §1

Experiment [25] addresses T24, IsaA oligopeptide SEQ ID NO: 47 (Staphylococcus aureus).
T24 construct: Synthetic 15-mer of IsaA, spotted on a glass slide
T24 peptide: TAGATGSSAAQIMAQ
The experiment is described as above.
Protocol: as §1

In experiment [26] the target is T25, IsaA oligopeptide SEQ ID NO: 41 (Staphylococcus aureus).
T25 construct: Synthetic 15-mer of IsaA, spotted on a glass slide
T25 peptide: VSAPTYHNYSTSTTS
Described as above.
Protocol: as §1

Experiment [27] has as its target T26, IsaA oligopeptide SEQ ID NO: 11 (Staphylococcus aureus).
T26 construct: Synthetic 15-mer of IsaA, spotted on a glass slide
T26 peptide: SLAVALGVTGYAAGT
Described as above.
Protocol: as §1

The target of experiment [28] is T27, IsaA oligopeptide SEQ ID NO: 58 (Staphylococcus aureus).
T27 construct: Synthetic 15-mer of IsaA, spotted on a glass slide
T27 peptide: SGLFQTMPGWGPTNT
Described as above.
Protocol: as §1

The target in experiment [29] is T28, recombinant IsaA protein of Staphylococcus aureus (29 kDa immunodominant antigen IsaA) (Staphylococcus aureus, UniProt Q2FV52 30-233, limits assumed).
T28 construct: Coated as rIsaA in the ELISA; In the first SPR experiment it was N-biotinylated with sulfo-NHS-LC-biotin (mostly at a single site) and immobilised on streptavidin; In the second SPR experiment it was the analyte in solution; also called rIsaA; 29 kDa IsaA antigen
T28 sequence (looked up): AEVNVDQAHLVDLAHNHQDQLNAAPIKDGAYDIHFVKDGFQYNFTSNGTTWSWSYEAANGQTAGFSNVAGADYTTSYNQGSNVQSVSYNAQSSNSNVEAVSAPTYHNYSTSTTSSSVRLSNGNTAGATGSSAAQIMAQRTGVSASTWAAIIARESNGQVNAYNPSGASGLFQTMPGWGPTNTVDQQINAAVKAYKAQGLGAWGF
Nature of the experiment: SPR (BIACORE 2000), biotinylated IsaA on streptavidin chip, antibody as analyte; off rate set to 10^-5 sec^-1; off rate set to 10^-5 sec^-1.
Protocol: The amount of the immobilized antigen corresponds to about 100 resonance units [RU] measured by means of the BIACORE®2000 system.
Interaction analyses were performed using HBS150 buffer (10 mM HEPES pH7.4, 150 mM NaCl, 3.4 mM EDTA). Sensorgrams were recorded at a flow rate of 10 μl/min at 25° C. The association and dissociation time was set to 10 min. The chips were regenerated after each cycle with different regeneration solutions (A: 1 mM CH₃COOH, 1 M NaCl, pH 3; B: 4 M MgCl₂; C: 1 mM CH₃COOH, 1 M NaCl, 6 M Urea, pH 3) for 2 min.
Since the evaluation of the kinetic rate constant is limited to 10⁻⁵ sec⁻¹ the observed off-rate has to be smaller than that value.

Where two headings read alike, the source gives them in different places.

“control antibodies (peptide array) (antibody)” displayed a Binding (fluorescence intensity) in [1] of 98.3.

B1: monoclonal antibody MAB-UK-66 secreted by hybridoma cell line DSM ACC2987 (antibody, V domains shown)
VH: DVKLVESGGGLVKLGGSLKLSCSASGFTFSNYYMSWVRQTPEKRLELVADINGNGGSTYYPDTVKGRFTISRDNAKNTLYLQMSSLKSEDTALYYCVRRGGYYALDYWGQGTTVTVSS
VL: DVVMTQTPLSLPVSLGDQASISCRSSQSLVHINGNTYLHWYLQKPGQSPKLLIYRVSNRFSGVPDRFSGSGSGTDFTLKISRVEAEDLGVYFCSQSTHVPWTFGGGTKLELKR
notes: Monoclonal mouse antibody from a hybridoma; Detected with anti-mouse IgG; also called antibodies secreted by cell line DSM ACC2987; anti-IsaA MAB
By Kd is commonly meant the concentration at which binding is half-saturated. By kon is commonly meant a measure of how fast the partners come together. As to B1, the “Binding (fluorescence intensity)” value came out at 577 in experiment [2]; 11700 in [3]; 486 in experiment [4]; 1170 in experiment [5]; 17700 in experiment [6]; 587 in experiment [7]. The “Binding (fluorescence intensity)” value is 680 in [8]; 506 in experiment [9]; 29500 in experiment [10]; 479 in experiment [11]; 21500 in experiment [12]; 273 in experiment [13]. Moreover, the “Binding (fluorescence intensity)” value was found to be 9360 in [14]; 491 in experiment [15]; 31900 in experiment [16]; 579 in experiment [17]; 379 in experiment [18]; 25300 in experiment [19]. In addition, the “Binding (fluorescence intensity)” value in [20] came out at 59500; in experiment [21] it was 371; in experiment [22], 399; in [23] it was 33300; in experiment [24], 1050; in experiment [25], 252. For the same molecule, the “Binding (fluorescence intensity)” value stood at 421 in experiment [26], 101 in experiment [27] and 1320 in experiment [28]. For the same molecule, the Kd in experiment [29] is no more than 0.018 nM. For the same molecule, the kon in [29] is 560000 M⁻¹ s⁻¹.
